Key:
HeLa Kyoto [1] = assay: solubility in G1/S (NP-40 vs SDS abundance) (log2 ratio); higher = more soluble; details: cell cycle stage: G1/S
HeLa Kyoto [2] = assay: melting temperature (median over replicates), in situ; higher = more thermally stable
HeLa Kyoto [3] = assay: solubility change mitosis vs G1/S (difference of NP-40 vs SDS log2 ratios) (log2 ratio difference); higher = more soluble in mitosis
HeLa Kyoto [4] = assay: thermal stability score vs G1/S (z-score of summed log2 fold changes over temperatures); higher = more thermally stable than in G1/S
[5] = cell cycle stage: early G1 (4.5 h after nocodazole release)
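Wherever melting temperature (median over replicates), in situ is given: HeLa Kyoto cells synchronized by double thymidine or nocodazole block, proteins quantified by TMT10plex mass spectrometry, three independent biological replicates.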
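Wherever solubility change mitosis vs G1/S (difference of NP-40 vs SDS log2 ratios) is given: synchronized HeLa Kyoto cells (double thymidine block for G1/S, nocodazole release for mitosis), protein amounts in NP-40 versus SDS lysates quantified by mass spectrometry, three biological replicates.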
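Wherever solubility in G1/S (NP-40 vs SDS abundance) is given: HeLa Kyoto cells arrested at G1/S by double thymidine block, proteins quantified by TMT10plex mass spectrometry in mild NP-40 versus SDS extracts, three biological replicates.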
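Wherever thermal stability score vs G1/S (z-score of summed log2 fold changes over temperatures) is given: synchronized HeLa Kyoto cells, proteins quantified by TMT10plex mass spectrometry, three biological replicates, mitosis taken 0.5 h after nocodazole release, G1/S directly after double thymidine block.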

CTDSPL2, sequence (chain, as listed by the source): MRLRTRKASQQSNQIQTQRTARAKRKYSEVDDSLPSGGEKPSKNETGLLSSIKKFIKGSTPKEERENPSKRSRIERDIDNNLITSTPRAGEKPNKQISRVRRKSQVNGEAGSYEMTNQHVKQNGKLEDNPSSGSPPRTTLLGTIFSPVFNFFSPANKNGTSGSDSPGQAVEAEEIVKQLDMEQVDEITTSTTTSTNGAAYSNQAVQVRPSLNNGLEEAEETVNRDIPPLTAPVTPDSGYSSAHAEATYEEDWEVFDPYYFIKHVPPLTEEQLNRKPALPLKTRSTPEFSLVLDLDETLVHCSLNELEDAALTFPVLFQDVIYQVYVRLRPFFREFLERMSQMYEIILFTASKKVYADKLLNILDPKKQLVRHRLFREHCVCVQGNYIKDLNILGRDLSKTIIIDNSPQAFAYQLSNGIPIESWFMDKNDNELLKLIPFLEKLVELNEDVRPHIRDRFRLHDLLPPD

Substance | solubility in G1/S (log2) (HeLa Kyoto [1]) | melting temperature (HeLa Kyoto [2]; cell cycle stage: mitosis) [°C] | solubility change mitosis (log2) (HeLa Kyoto [3]) | thermal stability score (HeLa Kyoto [4]; [5]) | thermal stability score (HeLa Kyoto [4]; cell cycle stage: mitosis) | melting temperature (HeLa Kyoto [2]; cell cycle stage: G1/S) [°C]
MATSATSPHAPGFPAEGRCGYYVEKKKRFCRMVVAAGKRFCGEHAGAAEEEDARKRILCPLDPKHTVYEDQLAKHLKKCNSREKPKPDFYIQDINAGLRDETEIPEQLVPISSLSEEQLEKLIKKLRKASEGLNSTLKDHIMSHPALHDALNDPKNGDSATKHLKQQASILGNIENLKLLGPRRCFVEFGAGKGKLSHWVDIALKDAEKVHFILVEKVTTRFKVDGKHRKKNSVFERLQIDIQHLCLNKIPVLREEKLPVVGIGKHLCGMATDLALRCLVETYAASFEERNEEPLAKRIKNDKTEKEIYTLAKEGNEKNVPEKWNPVAGIVIALCCHHRCDWRHYVGKEYFRALGLGAVEFHYFQRMSSWATCGMRKTSLETSNSTTKRQDNQNDDSEEHDDGGYRITDDGADCLPGLLSVEEKKKIGHLCKLLIDQGRIQYLQQKGFSPALQYYTDPLVSLENVLLTALPNHSSSPETTA [TRMT13] | 0.027 | 50.3 | -0.0657 | 1.03 | 0.684 | 
MSSEEGKLFVGGLNFNTDEQALEDHFSSFGPISEVVVVKDRETQRSRGFGFITFTNPEHASVAMRAMNGESLDGRQIRVDHAGKSARGTRGGGFGAHGRGRSYSRGGGDQGYGSGRYYDSRPGGYGYGYGRSRDYNGRNQGGYDRYSGGNYRDNYDN [RBM3] | 0.11 | 52.7 | 0.436 | -2.01 | -4.74 | 54.2
MDLRVGQRPPVEPPPEPTLLALQRPQRLHHHLFLAGLQQQRSVEPMRLSMDTPMPELQVGPQEQELRQLLHKDKSKRSAVASSVVKQKLAEVILKKQQAALERTVHPNSPGIPYRTLEPLETEGATRSMLSSFLPPVPSLPSDPPEHFPLRKTVSEPNLKLRYKPKKSLERRKNPLLRKESAPPSLRRRPAETLGDSSPSSSSTPASGCSSPNDSEHGPNPILGSEALLGQRLRLQETSVAPFALPTVSLLPAITLGLPAPARADSDRRTHPTLGPRGPILGSPHTPLFLPHGLEPEAGGTLPSRLQPILLLDPSGSHAPLLTVPGLGPLPFHFAQSLMTTERLSGSGLHWPLSRTRSEPLPPSATAPPPPGPMQPRLEQLKTHVQVIKRSAKPSEKPRLRQIPSAEDLETDGGGPGQVVDDGLEHRELGHGQPEARGPAPLQQHPQVLLWEQQRLAGRLPRGSTGDTVLLPLAQGGHRPLSRAQSSPAAPASLSAPEPASQARVLSSSETPARTLPFTTGLIYDSVMLKHQCSCGDNSRHPEHAGRIQSIWSRLQERGLRSQCECLRGRKASLEELQSVHSERHVLLYGTNPLSRLKLDNGKLAGLLAQRMFVMLPCGGVGVDTDTIWNELHSSNAARWAAGSVTDLAFKVASRELKNGFAVVRPPGHHADHSTAMGFCFFNSVAIACRQLQQQSKASKILIVDWDVHHGNGTQQTFYQDPSVLYISLHRHDDGNFFPGSGAVDEVGAGSGEGFNVNVAWAGGLDPPMGDPEYLAAFRIVVMPIAREFSPDLVLVSAGFDAAEGHPAPLGGYHVSAKCFGYMTQQLMNLAGGAVVLALEGGHDLTAICDASEACVAALLGNRVDPLSEEGWKQKPNLNAIRSLEAVIRVHSKYWGCMQRLASCPDSWVPRVPGADKEEVEAVTALASLSVGILAEDRPSEQLVEEEEPMNL [HDAC7] | 0.129 | 52.3 | 0.0342 | 0.178 | -0.224 | 53
MSMPDAMPLPGVGEELKQAKEIEDAEKYSFMATVTKAPKKQIQFADDMQEFTKFPTKTGRRSLSRSISQSSTDSYSSAASYTDSSDDEVSPREKQQTNSKGSSNFCVKNIKQAEFGRREIEIAEQDMSALISLRKRAQGEKPLAGAKIVGCTHITAQTAVLIETLCALGAQCRWSACNIYSTQNEVAAALAEAGVAVFAWKGESEDDFWWCIDRCVNMDGWQANMILDDGGDLTHWVYKKYPNVFKKIRGIVEESVTGVHRLYQLSKAGKLCVPAMNVNDSVTKQKFDNLYCCRESILDGLKRTTDVMFGGKQVVVCGYGEVGKGCCAALKALGAIVYITEIDPICALQACMDGFRVVKLNEVIRQVDVVITCTGNKNVVTREHLDRMKNSCIVCNMGHSNTEIDVTSLRTPELTWERVRSQVDHVIWPDGKRVVLLAEGRLLNLSCSTVPTFVLSITATTQALALIELYNAPEGRYKQDVYLLPKKMDEYVASLHLPSFDAHLTELTDDQAKYLGLNKNGPFKPNYYRY [AHCYL1] | -0.111 | 54.6 | -0.119 | -5.66 | -9.49 | 56.4
MTTEKSLVTEAENSQHQQKEEGEEAINSGQQEPQQEESCQTAAEGDNWCEQKLKASNGDTPTHEDLTKNKERTSESRGLSRLFSSFLKRPKSQVSEEEGKEVESDKEKGEGGQKEIEFGTSLDEEIILKAPIAAPEPELKTDPSLDLHSLSSAETQPAQEELREDPDFEIKEGEGLEECSKIEVKEESPQSKAETELKASQKPIRKHRNMHCKVSLLDDTVYECVVEKHAKGQDLLKRVCEHLNLLEEDYFGLAIWDNATSKTWLDSAKEIKKQVRGVPWNFTFNVKFYPPDPAQLTEDITRYYLCLQLRQDIVAGRLPCSFATLALLGSYTIQSELGDYDPELHGVDYVSDFKLAPNQTKELEEKVMELHKSYRSMTPAQADLEFLENAKKLSMYGVDLHKAKDLEGVDIILGVCSSGLLVYKDKLRINRFPWPKVLKISYKRSSFFIKIRPGEQEQYESTIGFKLPSYRAAKKLWKVCVEHHTFFRLTSTDTIPKSKFLALGSKFRYSGRTQAQTRQASALIDRPAPHFERTASKRASRSLDGAAAVDSADRSPRPTSAPAITQGQVAEGGVLDASAKKTVVPKAQKETVKAEVKKEDEPPEQAEPEPTEAWKVEKTHIEVTVPTSNGDQTQKLAEKTEDLIRMRKKKRERLDGENIYIRHSNLMLEDLDKSQEEIKKHHASISELKKNFMESVPEPRPSEWDKRLSTHSPFRTLNINGQIPTGEGPPLVKTQTVTISDNANAVKSEIPTKDVPIVHTETKTITYEAAQTDDNSGDLDPGVLLTAQTITSETPSSTTTTQITKTVKGGISETRIEKRIVITGDADIDHDQVLVQAIKEAKEQHPDMSVTKVVVHQETEIADE [EPB41] | -0.0892 | 51.6 | -0.0541 | -0.449 | -0.552 | 51.6
MPYVDRQNRICGFLDIEENENSGKFLRRYFILDTREDSFVWYMDNPQNLPSGSSRVGAIKLTYISKVSDATKLRPKAEFCFVMNAGMRKYFLQANDQQDLVEWVNVLNKAIKITVPKQSDSQPNSDNLSRHGECGKKQVSYRTDIVGGVPIITPTQKEEVNECGESIDRNNLKRSQSHLPYFTPKPPQDSAVIKAGYCVKQGAVMKNWKRRYFQLDENTIGYFKSELEKEPLRVIPLKEVHKVQECKQSDIMMRDNLFEIVTTSRTFYVQADSPEEMHSWIKAVSGAIVAQRGPGRSASSEHPPGPSESKHAFRPTNAATATSHSTASRSNSLVSTFTMEKRGFYESLAKVKPGNFKVQTVSPREPASKVTEQALLRPQSKNGPQEKDCDLVDLDDASLPVSDV [PLEKHA1] | 0.0285 | 49 | -0.0272 | 0.0968 | 0.182 | 49.8
MQSNKTFNLEKQNHTPRKHHQHHHQQQHHQQQQQQPPPPPIPANGQQASSQNEGLTIDLKNFRKPGEKTFTQRSRLFVGNLPPDITEEEMRKLFEKYGKAGEVFIHKDKGFGFIRLETRTLAEIAKVELDNMPLRGKQLRVRFACHSASLTVRNLPQYVSNELLEEAFSVFGQVERAVVIVDDRGRPSGKGIVEFSGKPAARKALDRCSEGSFLLTTFPRPVTVEPMDQLDDEEGLPEKLVIKNQQFHKEREQPPRFAQPGSFEYEYAMRWKALIEMEKQQQDQVDRNIKEAREKLEMEMEAARHEHQVMLMRQDLMRRQEELRRMEELHNQEVQKRKQLELRQEEERRRREEEMRRQQEEMMRRQQEGFKGTFPDAREQEIRMGQMAMGGAMGINNRGAMPPAPVPAGTPAPPGPATMMPDGTLGLTPPTTERFGQAATMEGIGAIGGTPPAFNRAAPGAEFAPNKRRRY [NONO] | -0.113 | 47.8 | 0.501 | 4.71 | 11.4 | 46.6
MGDSHVDTSSTVSEAVAEEVSLFSMTDMILFSLIVGLLTYWFLFRKKKEEVPEFTKIQTLTSSVRESSFVEKMKKTGRNIIVFYGSQTGTAEEFANRLSKDAHRYGMRGMSADPEEYDLADLSSLPEIDNALVVFCMATYGEGDPTDNAQDFYDWLQETDVDLSGVKFAVFGLGNKTYEHFNAMGKYVDKRLEQLGAQRIFELGLGDDDGNLEEDFITWREQFWPAVCEHFGVEATGEESSIRQYELVVHTDIDAAKVYMGEMGRLKSYENQKPPFDAKNPFLAAVTTNRKLNQGTERHLMHLELDISDSKIRYESGDHVAVYPANDSALVNQLGKILGADLDVVMSLNNLDEESNKKHPFPCPTSYRTALTYYLDITNPPRTNVLYELAQYASEPSEQELLRKMASSSGEGKELYLSWVVEARRHILAILQDCPSLRPPIDHLCELLPRLQARYYSIASSSKVHPNSVHICAVVVEYETKAGRINKGVATNWLRAKEPAGENGGRALVPMFVRKSQFRLPFKATTPVIMVGPGTGVAPFIGFIQERAWLRQQGKEVGETLLYYGCRRSDEDYLYREELAQFHRDGALTQLNVAFSREQSHKVYVQHLLKQDREHLWKLIEGGAHIYVCGDARNMARDVQNTFYDIVAELGAMEHAQAVDYIKKLMTKGRYSLDVWS [POR] | 0.0892 | 51.1 | -0.125 | 4.17 | 5.83 | 51.6
MAEGEDVGWWRSWLQQSYQAVKEKSSEALEFMKRDLTEFTQVVQHDTACTIAATASVVKEKLATEGSSGATEKMKKGLSDFLGVISDTFAPSPDKTIDCDVITLMGTPSGTAEPYDGTKARLYSLQSDPATYCNEPDGPPELFDAWLSQFCLEEKKGEISELLVGSPSIRALYTKMVPAAVSHSEFWHRYFYKVHQLEQEQARRDALKQRAEQSISEEPGWEEEEEELMGISPISPKEAKVPVAKISTFPEGEPGPQSPCEENLVTSVEPPAEVTPSESSESISLVTQIANPATAPEARVLPKDLSQKLLEASLEEQGLAVDVGETGPSPPIHSKPLTPAGHTGGPEPRPPARVETLREEAPTDLRVFELNSDSGKSTPSNNGKKGSSTDISEDWEKDFDLDMTEEEVQMALSKVDASGELEDVEWEDWE [BSDC1] | 0.378 | 53.5 | -0.201 | -1.16 | -2.92 | 53.3
ITSN2 | -0.159 | 49.1 | -0.0144 | 0.178 | 0.129 | 51.9
MSRFPAVAGRAPRRQEEGERSRDLQEERLSAVCIADREEKGCTSQEGGTTPTFPIQKQRKKIIQAVRDNSFLIVTGNTGSGKTTQLPKYLYEAGFSQHGMIGVTQPRKVAAISVAQRVAEEMKCTLGSKVGYQVRFDDCSSKETAIKYMTDGCLLKHILGDPNLTKFSVIILDEAHERTLTTDILFGLLKKLFQEKSPNRKEHLKVVVMSATMELAKLSAFFGNCPIFDIPGRLYPVREKFCNLIGPRDRENTAYIQAIVKVTMDIHLNEMAGDILVFLTGQFEIEKSCELLFQMAESVDYDYDVQDTTLDGLLILPCYGSMTTDQQRRIFLPPPPGIRKCVISTNISATSLTIDGIRYVVDGGFVKQLNHNPRLGLDILEVVPISKSEALQRSGRAGRTSSGKCFRIYSKDFWNQCMPDHVIPEIKRTSLTSVVLTLKCLAIHDVIRFPYLDPPNERLILEALKQLYQCDAIDRSGHVTRLGLSMVEFPLPPHLTCAVIKAASLDCEDLLLPIAAMLSVENVFIRPVDPEYQKEAEQRHRELAAKAGGFNDFATLAVIFEQCKSSGAPASWCQKHWIHWRCLFSAFRVEAQLRELIRKLKQQSDFPKETFEGPKHEVLRRCLCAGYFKNVARRSVGRTFCTMDGRGSPVHIHPSSALHEQETKLEWIIFHEVLVTTKVYARIVCPIRYEWVRDLLPKLHEFNAHDLSSVARREVREDARRRWTNKENVKQLKDGISKDVLKKMQRRNDDKSISDARARFLERKQQRTQDHSDTRKETG [DHX40] | -0.176 | 50.2 | -0.071 | 0.738 | 1.62 | 51.7
RNF213 | -0.346 | 49.8 | -0.11 | 0.57 | 1.78 | 49.9
CTDSPL2 | -0.599 | 48.7 | 0.46 | 2.66 | 4.58 | 48.4
